Reference: patent US20240174992A1 (PROMEGA, published 2024)

Legend:
[1] = target: HaloTag[22-297](Q145H+P154R)-6×His; test: purified system, 80 nM large fragment, peptide titration, TMR ligand
[2] = target: T1, HaloTag[22-297](Q145H+P154R); test: apparent affinity from peptide titration of the large fragment in E. coli lysate, JF646 fluorescence complementation; signal approaches saturation
T1 construct: also called LgHT variant

HaloTag[22-297](M2F) = target: T2, HaloTag[22-297](M2F); test: apparent affinity from peptide titration (up to 1 mM) of the large fragment in E. coli lysate, JF646 fluorescence complementation; signal did not saturate
T2 construct: also called LgHT (M2F variant); Large HaloTag
T2 sequence (chain, as listed by the source): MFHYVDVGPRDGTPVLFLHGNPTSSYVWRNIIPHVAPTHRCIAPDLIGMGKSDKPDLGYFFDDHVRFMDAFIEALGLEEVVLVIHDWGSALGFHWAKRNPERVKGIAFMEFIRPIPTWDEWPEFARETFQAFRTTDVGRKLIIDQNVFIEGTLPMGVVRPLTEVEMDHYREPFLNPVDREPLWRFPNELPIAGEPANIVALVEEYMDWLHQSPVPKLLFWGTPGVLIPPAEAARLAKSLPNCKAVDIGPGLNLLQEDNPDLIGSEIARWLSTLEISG

T1 sequence (chain, as listed by the source Q145H P154R Q145H P154R): as the sequence (chain, as listed by the source) above, with F2M, Q145H, P154R counted along it
Chain of HaloTag[22-297](Q145H+P154R)-6×His (chain, as listed by the source Q145H P154R Q145H P154R): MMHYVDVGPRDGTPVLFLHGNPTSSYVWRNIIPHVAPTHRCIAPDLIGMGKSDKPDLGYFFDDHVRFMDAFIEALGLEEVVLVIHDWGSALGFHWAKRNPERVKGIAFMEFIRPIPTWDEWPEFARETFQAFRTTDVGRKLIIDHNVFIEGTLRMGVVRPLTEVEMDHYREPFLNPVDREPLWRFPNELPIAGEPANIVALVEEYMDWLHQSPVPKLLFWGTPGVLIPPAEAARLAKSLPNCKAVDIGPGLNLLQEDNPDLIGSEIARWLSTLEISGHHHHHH

binding result [1]: binds
Kd [2]: ~1000 nM
Kd (HaloTag[22-297](M2F)): > 100000 nM
Binder: EIGTGFPFDPHYVEVLG (also called HT(3-19); SmHT) [synthetic HaloTag[3-19] peptide]
